From paper PMC4546566 (Annals of neurology, 2015)

Tests used:
[1] = Aβ stable isotope labeling kinetics; assay type: in vivo, human; conditions: for FTR faster in cognitively normal amyloid positive group: in vivo
[2] = assay type: in vivo, human; conditions: 0.143 - 0.091

Substance	FTR faster in cognitively normal amyloid positive group [1]	FTR (fractional turnover rate, irreversible loss) ([1]; compartmental model, CDR-SB = 0 (n=44), mean ± SD)	deposition rate constant into amyloid plaques [2]
Aβ40: endogenous soluble amyloid-beta isoform ending at residue 40, measured in human CSF	17%	–	–
Aβ38: endogenous soluble amyloid-beta isoform ending at residue 38, measured in human CSF	22%	–	–
Aβ42: endogenous soluble amyloid-beta isoform ending at residue 42, measured in human CSF	57%	0.104 ± 0.036 pools/h	0.052 pool/h
